Here are results for 141 substances from the supplement of paper PMC12042874.

± gives the uncertainty stated by the source.

A short description of the data set: amyloid nucleation score (Sup35N fusion, yeast selection) (log enrichment); library NNK1; higher = more nucleation; inactive = no reads after selection. The method in brief: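 After 24 hours of induction with 100 μM copper sulfate, psi-negative yeast expressing peptides of 20 random codons fused to Sup35N were grown for 7 days at 30°C on medium lacking adenine and uracil. Input and output plasmid inserts were sequenced with Illumina, and sequences with under 100 input reads were discarded. Scores for nucleation are the DiMSum log enrichment of output over input reads, centred on the mode score of non-aggregating sequences.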
As to WFTDGT, the amyloid nucleation score result is “inactive”.
Next, FRGYSGL: 1.46 ± 0.55.
In turn, MTPTTWLYPVILTSSLS came in with an amyloid nucleation score of 0.44 ± 0.84.
Next, GFARLLLRRVHRAIISHFRF: -0.617 ± 0.45.
For the substance IIGSEARLD, the amyloid nucleation score entry is “inactive”.
In the case of YMVLVDLRTGRIHGSAGEKR it was -0.174 ± 0.5; in that of FPLSTQ, 2.37 ± 0.43.
In the case of FVGCRHHFGPCTNRCTK it was 0.087 ± 0.9; in that of VVHLSLCMRCALWRYRELVC, 1.12 ± 0.55; in that of FTGNLSGDCIYYFLCVVLSM, 0.47 ± 0.65.
In the case of QYCIHNNFEYDGL it was -0.98 ± 0.47; in that of SVLIRALFTFKLRSVERQDY, 3.82 ± 0.069; in that of KFFCCN, 7.776 ± 0.076.
Turning to MFQVVGRYNGVFLVTEPWTC, the amyloid nucleation score entry is “inactive”.
In turn, STYSSWQDTRVFNLAMLSI displayed an amyloid nucleation score of -0.68 ± 0.85.
YSYFWVAWF came in with an amyloid nucleation score of 0.329 ± 0.4.
For CPVNDMGVWGKMACWNNRV, the amyloid nucleation score was -0.691 ± 0.54.
Next, IRCLGISRIFLVYRSVPFWI: 0.413 ± 0.57; DAMRGLPFYQYMHHMGNGYW: -0.083 ± 1.4.
In turn, YTVMVVI yielded an amyloid nucleation score of 1.44 ± 0.4.
Next, RVGILRMYSMFQFFKSLQWI: -0.372 ± 0.86; LILEHNFWVRISYELVPCFW: 1.15 ± 0.3.
Next, RSSCL: -2.09 ± 2.4.
Next, GSQSEVVCGW: 1.14 ± 0.74; ASCVGNINDCRPNIAFWVEE: 0.984 ± 0.84.
The substance IVEDSLRFIANPYTILNR came in with an amyloid nucleation score of 0.723 ± 0.55.
Next, SYKNVGRV: 0.273 ± 0.86; LFMLWLCCIKVFNKGCFGRS: -0.297 ± 0.26.
In the case of SYNFWLRMAGRCSKM it was -0.618 ± 0.6.
In the case of NGKGFNDVVKLRSGRRWGVR it was -0.111 ± 1.4.
HYYVLCFRVHLGQ: the amyloid nucleation score came to 0.176 ± 1.1.
In the case of MIIRLVLVGSSYKNVPSAEG it was 0.137 ± 0.49.
In the case of HWSSSS it was -0.745 ± 0.66.
Substance FLNTNEKIKMQPIFPFFLLL displayed an amyloid nucleation score of -0.495 ± 0.65.
On to VWRSVSRCSCVSSSIGGVTV, for which the amyloid nucleation score is -0.868 ± 0.39.
Next, VYITVFMIAYMLLSDTDHE: 0.377 ± 0.31; CDSFVSFMPNFNFFR: 5.03 ± 0.056; GEDVFVRSNELRN: 0.338 ± 0.38.
Next, CDYVKRLDNLLGYPLWWGRW: 0.22 ± 0.34.
Next, TLAGRCINDCILEGDMSRCF: 2.18 ± 0.57.
Take IICISFWSVKLVDHPMVSNG: the amyloid nucleation score was found to be 0.726 ± 0.75.
Next, NLFIPILVYHDVSRYSLRMD: 6.483 ± 0.055; FVPIDLGNGK: 0.564 ± 0.51.
In the case of QFILRDNVVRRMKFRGVPNF it was 2.22 ± 0.55; in that of LTRGQSLPMCATSVFEEYSH, 0.325 ± 0.43.
Next, LIISFVIVSRMLSVRFSTIV: 0.262 ± 0.61; YQVYWSVSG: -0.021 ± 0.51.
The substance LNSSIYDLSHTVAGCHPALT returned an amyloid nucleation score of -0.293 ± 1.3.
Next, VLDGVNNNILLCLISRWGVL: 4.46 ± 0.079; YMFWRGLVFKWVV: 0.667 ± 0.56; TISLL: 0.13 ± 0.43.
In the case of ARYSRRRKVMSLLVTGEMDA it was -0.038 ± 0.44.
The substance HCYRITYKRSNRDVL registered an amyloid nucleation score of 1.76 ± 0.36.
Next, LPTSTVSCQNWDTLLTLCSG: -0.094 ± 0.77.
Next, SVINIGRNMISI: -0.353 ± 0.67.
NPAITGRFSYCT had an amyloid nucleation score of 0.456 ± 1.2.
In the case of IWWFGSILFLRQSWYKIWSC it was -0.877 ± 0.39; in that of SEGCCYRKGCVTTRDSALSG, “inactive”.
In the case of SHMDHGRQRWCSN it was 0.83 ± 0.88; in that of GVGNTRQRVFRVVHCLAMLQ, 0.634 ± 0.88.
In the case of GERDACYPKSLD it was -1.06 ± 2.4; in that of GYNNRRDFPLSMPCRH, -0.363 ± 0.88.
In the case of TCQFFRLSNRILQGDYSILM, the amyloid nucleation score is -0.342 ± 0.48.
In the case of KYFIMCDIILCVVPVSYTGG it was 3.87 ± 0.074; in that of AFPTIAYMIWVFVDVQLCSE, 1.25 ± 0.58; in that of SYGGGYTTSQGYGLGELTKY, 0.543 ± 1.1.
In turn, YEDLSNDYNSNRWIVYALSK had an amyloid nucleation score of -0.189 ± 0.24.
In the case of GSLKEMEKHPWKKATTYQYA it was 1.47 ± 0.23; in that of PTEKYAESLMERTYFRAEMK, 0.315 ± 0.34; in that of VLDMKFKYNVPSLK, 5.41 ± 0.06.
Next, LMEFHLYQMYSLRLVARRWW: 1.32 ± 0.38.
Substance CLVPAQGCYYGYLLTLMVER came in with an amyloid nucleation score of -0.264 ± 0.52.
In the case of NHFVALLSGIGVCSFWKKFG it was -0.257 ± 1.5.
In the case of AYSLLMDYGFNHLFIRRFSR it was -0.067 ± 0.42; in that of CVPDGKFRSKRIPGRNFPLL, 0.278 ± 0.42; in that of HFMWAYRCSDYDLM, 2.01 ± 0.11.
For the substance ILYMWWVRPLVQAQENRRRY, the amyloid nucleation score was -0.089 ± 0.39.
Next, GTVYWIYGGINLSAVLSSRS: 3.44 ± 0.1; FALVRTLTRSKSSFTTSQIK: 0.524 ± 0.47; LNYIQNC: “inactive”.
In the case of KMQPQMTCFS it was -0.435 ± 0.53.
Next, LHFVERLSLRPMGVVGFSRK: -0.178 ± 0.7.
PVKVWARTVQSVAWLFSCG displayed an amyloid nucleation score of -0.016 ± 1.4.
Next, RTEGVET: -0.251 ± 0.58.
Next, SCYTVYQLGLDVGRGVDLEF: -0.013 ± 0.58.
Next, AQLYVNWFCVWSFKE: 6.2 ± 0.08.
Regarding TEGYVFKCVGKMFLFRFSFA, the amyloid nucleation score was -0.114 ± 0.36.
In turn, VDFDPNVLFKWTDMKRSRSR showed an amyloid nucleation score of 1.66 ± 0.48.
In the case of LGFVDISGSYEVLGGYPSLR it was 0.031 ± 1.2; in that of SISWVWAAPIRAI, -1.59 ± 2.4.
In the case of PIFMCHSFFQAIICWLSSHL it was “inactive”.
Next, MGILW: -0.328 ± 0.66; KVNTLCEHSSIHRPVVGNGG: 0.082 ± 0.77.
For QKLLTSMSVITW, the amyloid nucleation score came out at 1.81 ± 0.65.
Next, THLVAPRSWLFIGPCRTKAS: 0.385 ± 0.89.
As for SGAYLKASYTSPSVRVFLVL, the amyloid nucleation score turned out to be 2.75 ± 0.25.
In the case of ALMNGQMVTGALITEWYNWC, the amyloid nucleation score turned out to be 0.439 ± 0.97.
In the case of FIIDYKTDKRSEFWL it was 0.215 ± 0.35; in that of EWRFCKS, -0.335 ± 0.33; in that of TWNRRVRVYTGYCPNVGMSL, 4.94 ± 0.059.
VTRYVPECGWKDLDLASWYL displayed an amyloid nucleation score of 1.34 ± 0.58.
Next, DIIVFSVLFLVTLDGDLWC: 0.476 ± 0.97; FMELEELCSCNERGLLWTPA: 1.6 ± 0.27.
In the case of QVFATRDAQRYLLMHRIDHN it was -0.153 ± 1.7.
In the case of YHRGIYLFSRSC it was -0.906 ± 0.88.
RRVGLVASDTGRGEWWTRSM gave an amyloid nucleation score of -0.015 ± 0.55.
In the case of FWVGP it was -0.217 ± 0.51; in that of RRAPLNLTREVSSVWEWRII, -0.631 ± 0.68.
Regarding ITLKCCMSTRNHMCHR, the amyloid nucleation score is 3.75 ± 0.066.
GSNIGQSFWYRRWVQQRTAE gave an amyloid nucleation score of -1.13 ± 2.7.
Next, DLEIAGREGS: -0.322 ± 0.55.
Next, YNVSQLVLLNVFTCK: 7.459 ± 0.044; WFAGAGLIMRNVRSGW: -0.126 ± 0.66; RGAASKDLLMV: 0.082 ± 0.86.
Next, VFNWTHPWLSQH: -0.047 ± 0.78; VSAND: -0.547 ± 0.4; SSIAAIVM: 0.723 ± 0.41.
On to AMQGACGFISGGFSVARVFV, for which the amyloid nucleation score was 0.296 ± 0.25.
Regarding VWLGTEFFVSCLACMLVSVL, the amyloid nucleation score is -1.05 ± 0.54.
As to CWCGVTVCV, the amyloid nucleation score is -0.276 ± 0.59.
Next, NWLFRQCGSQMMVYVFEFFY: -0.776 ± 0.59.
Next, LNMLMMVGVWGYFVITIHTI: 0.68 ± 0.71.
In the case of NFCFTVFLEVNAVKMRIYF it was -0.798 ± 1.1; in that of IEQSNMVTARRLELLRSAVS, 0.339 ± 0.54; in that of VNLGKNFTQLLIGRCVSKVR, 0.417 ± 0.33.
Take KKFVNFWVMSLYLNSDYSP: the amyloid nucleation score entry is “inactive”.
In the case of SHLGVVCNRLVYERETNVST it was -0.191 ± 0.29; in that of GMFYVLVGENCCFYALVWTL, -0.223 ± 0.23; in that of LILCCPYNFNLVLMCCPKVG, 7.268 ± 0.049.
As for CRRPEWCEWQGLQTEE, the amyloid nucleation score was determined as 0.266 ± 0.83.
Next, FALLFRLFRW: 0.539 ± 0.28.
In the case of LACTSASSVSRESFMYSQMS, the amyloid nucleation score was found to be 2.78 ± 0.16.
Turning to NTISMFDMLQISKTSQHQFA, the amyloid nucleation score turned out to be 0.387 ± 0.45.
As for VEQSFTAAPFQDVLF, the amyloid nucleation score was -0.38 ± 0.32.
Next, SSSRV: 0.111 ± 0.42; SMMEAFDPKYAVSWSVESLT: 1.26 ± 0.67.
Substance KLETYYGAFNFNWFLSLNGD displayed an amyloid nucleation score of 5.08 ± 0.061.
In the case of GRRYELPGPSPYCVRDSGRR it was -0.301 ± 0.65; in that of VTQIKPVRRLGGL, -0.692 ± 0.87.
In the case of YFGMSY it was -1.38 ± 0.66.
Next, YVMDYSD: 0.096 ± 0.61.
